Experimental data published in PMC8876964 (Pharmaceuticals, 2022).
Where two headings read alike, the source gives them in different places.

Key:
[1] = tested on: serum albumin; settings: cited from earlier work
[2] = PET/CT imaging of BxPC-3 tumor-bearing mice; format: in vivo; settings: athymic nude, mouse, iv, 3.7 MBq, total radioactivity
Method: For blocking study, excess of unlabeled peptides was administered 1–2 min before radiotracer injection. The PET scans were acquired for 20 min on an Inveon small animal PET/CT scanner (Siemens Medical Solutions, Malvern, PA, USA). Static images were reconstructed with the maximum a posteriori (MAP) reconstruction algorithm and corrected for decay. Image analysis was performed using the Inveon Research Workstation image display software (Siemens). Regions of interest (ROI) were selected based on co-registered anatomical CT images, and the average or maximum standard uptake value (SUV) was calculated as the mean or maximum regional radioactivity concentration (nCi/cc) x animal weight (g)/decay-corrected amount of injected dose (nCi).

[3] = Biodistribution in normal CD-1 mice; format: in vivo; settings: mouse, iv, total radioactivity, 0.37 MBq i.v., n = 4–5, mean ± SD
Method: The comparison of non-albumin binding and albumin binding peptides were evaluated in CD-1 mice at 1, 4, 24, and 48 h. ^177Lu-labeled peptides were prepared at the specific activity of 10 MBq/nmol. Mice (n = 4–5) were intravenously injected with 0.37 MBq (10 µCi) of respective radioligands diluted in 100 μL saline and sacrificed at specified time points. Selected organs were collected, weighed, and counted for activity. The results were reported as the percentage of the injected radioactivity per gram of tissue mass (% ID/g) and the radioactivity was calibrated using a known standard.

[4] = Biodistribution in mice bearing BxPC-3 tumor xenografts; format: in vivo; settings: athymic nude, mouse, iv, total radioactivity, BxPC-3 tumor mice, 0.37 MBq i.v.; for tissue uptake at 1 h: 1 h p.i.; for tissue uptake at 48 h: 48 h p.i.
Method: Animals were supplied from Charles River Laboratories (Wilmington, MA, USA), and were handled in compliance with the Guidelines for Care and Use of Research Animals established by the Division of Comparative Medicine and the Animal Studies Committee of Washington University School of Medicine. Biodistribution studies were conducted in athymic nude mice bearing subcutaneous BxPC-3 tumors. Tumors were implanted on the right flank with 5 × 10^6 cells about 4 weeks before the performance of the experiments. Biodistribution studies were performed when the tumors reached approximately 5–7 mm in diameter. […] Tissues of interest (blood, lung, liver, spleen, kidney, muscle, heart, bone, and tumor) were collected and weighed, and the radioactivity was measured using a gamma counter. The results were expressed as the percentage of injected dose per gram of tissue (%ID/g).

[5] = tested on: BxPC-3 tumors; assay: Therapy studies in BxPC-3 tumor-bearing mice; format: in vivo, athymic nude mice
Method: Therapy studies were conducted in athymic nude mice bearing BxPC-3 tumors when the tumor volume reached about 100 mm^3. […] Tumor volumes and body weights were monitored three times a week. Individual tumor size was calculated using the formula (length × width × width)/2. The mice were euthanized when the tumor reached 1500 mm^3, ulceration of >4 mm was present, or significant stress due to weight loss. […] The doses were administered via tail vein and tumor size and mouse weights were recorded three times a week. Tumor volumes were plotted versus time to determine tumor growth inhibition.

[6] = tested on: DX3puroβ6 tumor; settings: mouse, in vivo; cited from earlier work
[7] = blood, n = 4–5, mean ± SD, read-out: blood uptake
[8] = n = 4–5, mean ± SD, read-out: tumor uptake

O=C(O)CCCc1ccc(I)cc1 [4-(p-iodophenyl)butyric acid]
non-covalent binding with serum albumin [1]: micromolar range

Cc1cc(-c2ccc(/N=N/c3ccc4c(S(=O)(=O)O)cc(S(=O)(=O)O)c(N)c4c3O)c(C)c2)ccc1/N=N/c1ccc2c(S(=O)(=O)O)cc(S(=O)(=O)O)c(N)c2c1O [Evans Blue]
IC50 of reversible binding to serum albumin [1]: micromolar range

CC(C)C[C@H](NC(=O)[C@H](CC(=O)O)NC(=O)CNC(=O)[C@H](CCCNC(=N)N)NC(=O)[C@H](CC(C)C)NC(=O)[C@H](CC(N)=O)NC(=O)[C@@H]1CCCN1C(=O)[C@@H](NC(=O)[C@H](C)NC(=O)[C@H](CC(N)=O)NC(=O)CCOCCOCCOCCOCCOCCOCCOCCOCCOCCOCCOCCOCCOCCOCCOCCOCCOCCOCCOCCOCCOCCOCCOCCOCCOCCOCCOCCOCCNC(=O)CN1CCN(CC(=O)O)CCN(CC(=O)O)CCN(CC(=O)O)CC1)C(C)C)C(=O)N[C@@H](CCC(N)=O)C(=O)N[C@H](C(=O)N[C@@H](CC(C)C)C(=O)N[C@@H](C)C(=O)N[C@@H](CCC(N)=O)C(=O)N[C@@H](CCCCN)C(=O)N[C@H](C(=O)N[C@@H](C)C(=O)N[C@@H](CCCNC(=N)N)C(=O)N[C@H](C(=O)NCCOCCOCCOCCOCCOCCOCCOCCOCCOCCOCCOCCOCCOCCOCCOCCOCCOCCOCCOCCOCCOCCOCCOCCOCCOCCOCCOCCOCCC(N)=O)[C@@H](C)O)C(C)C)C(C)C [[^68Ga]Ga-DOTA-(PEG28)2-A20FMDV2, metal not drawn]
SUV at 1 h ([2]; mice receiving blocking agent (excess unlabeled peptide 1–2 min before), 1 h after 3.7 MBq i.v., n = 3, read-out: tumor SUVmax): 1.71 ± 0.04 SUV | SUV at 1 h ([2]; mice receiving blocking agent (excess unlabeled peptide 1–2 min before), 1 h after 3.7 MBq i.v., n = 3, read-out: tumor SUVmean): 1.22 ± 0.12 SUV | SUV at 1 h ([2]; non-block mice, 1 h after i.v. injection of 3.7 MBq, n = 3, read-out: tumor SUVmax): 3.85 ± 1.06 SUV | SUV at 1 h ([2]; non-block mice, 1 h after i.v. injection of 3.7 MBq, n = 3, read-out: tumor SUVmean): 2.77 ± 0.38 SUV

CC(C)C[C@H](NC(=O)[C@H](CC(=O)O)NC(=O)CNC(=O)[C@H](CCCNC(=N)N)NC(=O)[C@H](CC(C)C)NC(=O)[C@H](CC(N)=O)NC(=O)[C@@H]1CCCN1C(=O)[C@@H](NC(=O)[C@H](C)NC(=O)[C@H](CC(N)=O)NC(=O)CCOCCOCCOCCOCCOCCOCCOCCOCCOCCOCCOCCOCCOCCOCCOCCOCCOCCOCCOCCOCCOCCOCCOCCOCCOCCOCCOCCOCCNC(=O)CCSC1CC(=O)N(CCC(=O)NCCNC(=O)[C@H](CCCCNC(=O)CN2CCN(CC(=O)O)CCN(CC(=O)O)CCN(CC(=O)O)CC2)NC(=O)c2ccc(-c3ccc(N=Nc4ccc5c(S(=O)(=O)O)cc(S(=O)(=O)O)c(N)c5c4O)cc3)cc2)C1=O)C(C)C)C(=O)N[C@@H](CCC(N)=O)C(=O)N[C@H](C(=O)N[C@@H](CC(C)C)C(=O)N[C@@H](C)C(=O)N[C@@H](CCC(N)=O)C(=O)N[C@@H](CCCCN)C(=O)N[C@H](C(=O)N[C@@H](C)C(=O)N[C@@H](CCCNC(=N)N)C(=O)N[C@H](C(=O)NCCOCCOCCOCCOCCOCCOCCOCCOCCOCCOCCOCCOCCOCCOCCOCCOCCOCCOCCOCCOCCOCCOCCOCCOCCOCCOCCOCCOCCC(N)=O)[C@@H](C)O)C(C)C)C(C)C (stereo partly shown) [[^177Lu]Lu-EB-DOTA-(PEG28)2-A20FMDV2, metal not drawn]
tissue uptake at 1 h ([3]; blood): 5.36 ± 1.06 %ID/g | tissue uptake at 48 h ([3]; blood, 48 h p.i., read-out: blood uptake): 0.41 ± 0.03 %ID/g | tissue uptake at 48 h ([3]; kidney, 48 h, read-out: kidney uptake): 44.3 ± 5.13 %ID/g | tissue uptake at 1 h [4, 7]: 4.8 ± 0.69 %ID/g | tissue uptake at 4 h ([4]; blood, 4 h, n = 4–5, mean ± SD): 1.23 ± 0.3 %ID/g | tissue uptake at 48 h [4, 7]: 0.28 ± 0.01 %ID/g | tissue uptake at 1 h [4, 8]: 5.2 ± 1.02 %ID/g | tissue uptake at 48 h [4, 8]: 4.29 ± 0.78 %ID/g | tissue uptake ([4]; lung, liver, spleen, muscle, heart, bone, all time points (1, 4, 24, 48 h), read-out: uptake in normal organs such as lung, liver, spleen, muscle, heart, and bone): < 4 %ID/g | tumor volumes in comparison to the control group ([5]; single dose of 37 MBq, BxPC-3 tumor-bearing mice, n = 8, p < 0.001): significantly reduced | mortality ([5]; single dose of 37 MBq, two weeks after radiotracer injection): death of all mice | % intact in human serum: > 90%

CC(C)C[C@H](NC(=O)[C@H](CC(=O)O)NC(=O)CNC(=O)[C@H](CCCNC(=N)N)NC(=O)[C@H](CC(C)C)NC(=O)[C@H](CC(N)=O)NC(=O)[C@@H]1CCCN1C(=O)[C@@H](NC(=O)[C@H](C)NC(=O)[C@H](CC(N)=O)NC(=O)CCOCCOCCOCCOCCOCCOCCOCCOCCOCCOCCOCCOCCOCCOCCOCCOCCOCCOCCOCCOCCOCCOCCOCCOCCOCCOCCOCCOCCNC(=O)CN1CCN(CC(=O)O)CCN(CC(=O)O)CCN(CC(=O)O)CC1)C(C)C)C(=O)N[C@@H](CCC(N)=O)C(=O)N[C@H](C(=O)N[C@@H](CC(C)C)C(=O)N[C@@H](C)C(=O)N[C@@H](CCC(N)=O)C(=O)N[C@@H](CCCCN)C(=O)N[C@H](C(=O)N[C@@H](C)C(=O)N[C@@H](CCCNC(=N)N)C(=O)N[C@H](C(=O)NCCOCCOCCOCCOCCOCCOCCOCCOCCOCCOCCOCCOCCOCCOCCOCCOCCOCCOCCOCCOCCOCCOCCOCCOCCOCCOCCOCCOCCC(N)=O)[C@@H](C)O)C(C)C)C(C)C [metal not drawn]
tissue uptake at 1 h ([3]; blood): 0.11 ± 0.04 %ID/g | body weight change ([5]; 27.8 MBq, n = 8, during the course of the study): no significant weight loss | tumor inhibition in comparison to control group ([5]; 27.8 MBq, n = 8, until day 23 (p < 0.001 for the IBA peptide)): did not show significant tumor growth inhibition

NAVPNLRGDLQVLAQKVART [A20FMDV2]
tumor uptake [6]: 0.66 ± 0.09 % ID/g
